Key:
human Her3-his = biological target: T1, human Her3-his (human, UniProt P21860 20-643); assay: ELISA, antigen coated at 1 µg/mL, antibody titrated, anti-human Fc-HRP
T1 construct: range 1-643; also called human Her3 protein
Description: (§1) The affinity of anti-Her3 antibody to Her3 protein was detected by ELISA experimental method. Specific experimental procedures: human Her3-his, monkey Her3-his protein and rat Her3-his was diluted with carbonate buffer with a pH value of 9.6 to a final concentration of 1 μg/mL, and then added to 96-well enzyme labelling wells at 100 μL/well, and coated overnight at 4° C.; the coating solution was discarded, and the plate was washed once with PBST, then 100 μL of PBS (containing 2% BSA) was added to each well, and blocked at 37° C. for 1 h; then, 100 μL of anti-Her3 antibody diluted with PBS (containing 2% BSA) ((starting at 1 μg, 3 folds serial dilution, in duplicate wells) was added to each well, and then incubated at 37° C. for 2 h; the plate was washed three times with PBST, and horseradish peroxidase-labeled anti-human Fc antibody (diluted at 1:10000 with PBS) was added at 100 μL/well, then reacted for 1 h at 37° C. The plate was washed 5 times with PBST. TMB chromogenic solution was added at 100 μL/well and incubated at 37° C. for 7 min to develop color, and then the stop solution was added at 50 μL/well to terminate the reaction.

monkey Her3-his = biological target: T2, monkey Her3-his (monkey); assay: as above
T2 chain: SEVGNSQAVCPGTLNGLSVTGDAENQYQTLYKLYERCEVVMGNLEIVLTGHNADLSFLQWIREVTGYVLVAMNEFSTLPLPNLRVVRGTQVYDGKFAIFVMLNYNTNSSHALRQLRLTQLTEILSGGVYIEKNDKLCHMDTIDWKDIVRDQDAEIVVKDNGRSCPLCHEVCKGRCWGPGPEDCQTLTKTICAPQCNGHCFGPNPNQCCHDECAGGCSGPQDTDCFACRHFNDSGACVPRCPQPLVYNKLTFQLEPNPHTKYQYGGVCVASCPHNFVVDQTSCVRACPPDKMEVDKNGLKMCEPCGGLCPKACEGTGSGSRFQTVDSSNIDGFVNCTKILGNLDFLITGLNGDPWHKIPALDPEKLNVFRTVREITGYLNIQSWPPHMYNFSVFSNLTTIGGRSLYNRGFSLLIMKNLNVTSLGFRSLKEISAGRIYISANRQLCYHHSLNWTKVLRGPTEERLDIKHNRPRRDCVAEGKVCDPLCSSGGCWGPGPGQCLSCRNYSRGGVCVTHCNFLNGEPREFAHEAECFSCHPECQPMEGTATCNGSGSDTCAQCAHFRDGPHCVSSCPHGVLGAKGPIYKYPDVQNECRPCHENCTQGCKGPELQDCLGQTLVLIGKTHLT
Description: as §1

rat Her3-his = biological target: T3, rat Her3-his (rat, UniProt Q62799 20-643); assay: ELISA, rat Her3-his coated at 1 µg/mL, anti-human Fc-HRP
T3 construct: also called rat Her3 protein
Description: as §1

T3 sequence (Q62799 other isoform, or with tags, fused parts or gaps): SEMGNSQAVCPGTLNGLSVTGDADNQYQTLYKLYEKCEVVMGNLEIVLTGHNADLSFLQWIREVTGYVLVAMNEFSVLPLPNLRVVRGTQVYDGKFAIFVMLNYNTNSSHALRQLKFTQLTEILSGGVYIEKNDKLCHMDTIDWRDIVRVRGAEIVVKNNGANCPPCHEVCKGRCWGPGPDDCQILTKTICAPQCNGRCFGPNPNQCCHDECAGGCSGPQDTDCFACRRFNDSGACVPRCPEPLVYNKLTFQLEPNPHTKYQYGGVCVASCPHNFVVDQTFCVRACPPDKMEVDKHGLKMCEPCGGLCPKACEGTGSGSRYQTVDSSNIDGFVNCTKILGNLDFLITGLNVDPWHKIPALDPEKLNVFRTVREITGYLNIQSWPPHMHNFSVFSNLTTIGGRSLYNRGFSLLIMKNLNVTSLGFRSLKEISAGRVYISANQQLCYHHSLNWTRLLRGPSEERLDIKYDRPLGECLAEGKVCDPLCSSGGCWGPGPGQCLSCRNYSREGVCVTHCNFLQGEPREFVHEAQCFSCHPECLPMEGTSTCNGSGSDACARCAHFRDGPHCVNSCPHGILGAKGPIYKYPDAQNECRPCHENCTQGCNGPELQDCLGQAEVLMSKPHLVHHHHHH

B1: anti-Her3 antibody 202-2-1 (antibody, human IgG1, kappa, V domains shown)
VH: EVQLVESGGGVVQPGRSLRLSCAASGFTFSTYGMHWVRQAPGKGLEWVAVIWYDVSHKYYADSVKGRFTISRDNSKNTLSLQMNSLRAEDTAVYYCARDWGDPDAFDIWGQGTMVTVSS
VL: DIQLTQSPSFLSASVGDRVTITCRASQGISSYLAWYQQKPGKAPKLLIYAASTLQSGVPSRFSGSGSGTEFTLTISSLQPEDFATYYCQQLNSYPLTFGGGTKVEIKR
notes: expressed in HEK293F; also called Her3mAb
Q: What does the source list for B1?
A: EC50 (human Her3-his): 0.021 nM; EC50 (monkey Her3-his): 0.0159 nM; binding result (rat Her3-his): no binding
